Changes are numbered by the printed parent chain. Peptide text beside a SMILES is read from it. * marks the point of attachment. Cbz = O=C(OCc1ccccc1)*
B1: N-terminal HA-tagged USP21 (enzyme, not shown: small tags and cut ends)
chain: MPQASEHRLGRTREPPVNIQPRVGSKLPFAPRARSKERRNPASGPNPMLRPLPPRPGLPDERLKKLELGRGRTSGPRPRGPLRADHGVPLPGSPPPTVALPLPSRTNLARSKSVSSGDLRPMGIALGGHRGTGELGAALSRLALRPEPPTLRRSTSLRRLGGFPGPPTLFSIRTEPPASHGSFHMISARSSEPFYSDDKMAHHTLLLGSGHVGLRNLGNTCFLNAVLQCLSSTRPLRDFCLRRDFRQEVPGGGRAQELTEAFADVIGALWHPDSCEAVNPTRFRAVFQKYVPSFSGYSQQDAQEFLKLLMERLHLEINRRGRRAPPILANGPVPSPPRRGGALLEEPELSDDDRANLMWKRYLEREDSKIVDLFVGQLKSCLKCQACGYRSTTFEVFCDLSLPIPKKGFAGGKVSLRDCFNLFTKEEELESENAPVCDRCRQKTRSTKKLTVQRFPRILVLHLNRFSASRGSIKKSSVGVDFPLQRLSLGDFASDKAGSPVYQLYALCNHSGSVHYGHYTALCRCQTGWHVYNDSRVSPVSENQVASSEGYVLFYQLMQEPPRCL
notes: Expressed transiently in HEK293T cells from pCI-HA-USP21 (human USP21 cDNA cloned from human kidney cDNA); also called HA-USP21
B2: N-terminal HA-tagged inactive USP21 (protein)
chain: B1 chain with C221A

Columns and labels:
TERT = assay: Effect of proteasome inhibitor on amount of intracellular TERT (transient TERT expression, Western blotting); type: cell-based, human; details: HEK293T cells transfected with pCIneo-TERT; final concentration 25 μM, 24 hours; compared with DMSO control; Western blotting with anti-TERT antibodies
Excerpt: NEDD8 is a ubiquitin-like protein, and is known to covalently conjugate to proteins for post translational modification of proteins. Only a cullin family protein, which is one of the subunits of a ubiquitin ligase complex, has been reported as a protein that undergoes NEDD8 conjugation (Non-patent References 5 and 6). […] NEDD8 has a significant homology with ubiquitin at the level of both primary structure and tertiary structure. Therefore, it is plausible that NEDD8 conjugation to proteins works as a signal for proteasome-dependent protein degradation (Non-patent Reference 5), similar to ubiquitination. Thus, it can be reasoned, that there exists a regulatory system for TERT degradation via modification by NEDD8 conjugation to TERT and NEDD8 deconjugation by USP21. Accordingly, an investigation was conducted to determine whether TERT may undergo proteasome-dependent degradation. […]
8×10^4 cells/well of HEK293T cells were cultured overnight at 37° C. under the atmosphere of 5% CO2 in 12 well plates, and then transfected with 1 μg of pCIneo-TERT using FuGENE6 Transfection Reagent (Roche). […] Further, β-tubulin, an internal control protein in the cell lysates, was detected by Western blotting using anti-β-tubulin (H-235) antibodies (Santa Cruz). […]

[1] = target: TERT modified with one or more FLAG-NEDD8 molecules (NEDD8-conjugated TERT)
[2] = target: T1, N-terminal FLAG-tagged TERT (human, UniProt O14746 1-1132); assay: co-expression in HEK293T cells, immunoprecipitation with anti-HA agarose, Western blot with anti-FLAG
T1 construct: Expressed transiently in HEK293T cells from pCI-FLAG-TERT (human TERT cDNA cloned from human thymus cDNA); present in the cell lysate; also called FLAG-TERT
T1 sequence (O14746 whole entry): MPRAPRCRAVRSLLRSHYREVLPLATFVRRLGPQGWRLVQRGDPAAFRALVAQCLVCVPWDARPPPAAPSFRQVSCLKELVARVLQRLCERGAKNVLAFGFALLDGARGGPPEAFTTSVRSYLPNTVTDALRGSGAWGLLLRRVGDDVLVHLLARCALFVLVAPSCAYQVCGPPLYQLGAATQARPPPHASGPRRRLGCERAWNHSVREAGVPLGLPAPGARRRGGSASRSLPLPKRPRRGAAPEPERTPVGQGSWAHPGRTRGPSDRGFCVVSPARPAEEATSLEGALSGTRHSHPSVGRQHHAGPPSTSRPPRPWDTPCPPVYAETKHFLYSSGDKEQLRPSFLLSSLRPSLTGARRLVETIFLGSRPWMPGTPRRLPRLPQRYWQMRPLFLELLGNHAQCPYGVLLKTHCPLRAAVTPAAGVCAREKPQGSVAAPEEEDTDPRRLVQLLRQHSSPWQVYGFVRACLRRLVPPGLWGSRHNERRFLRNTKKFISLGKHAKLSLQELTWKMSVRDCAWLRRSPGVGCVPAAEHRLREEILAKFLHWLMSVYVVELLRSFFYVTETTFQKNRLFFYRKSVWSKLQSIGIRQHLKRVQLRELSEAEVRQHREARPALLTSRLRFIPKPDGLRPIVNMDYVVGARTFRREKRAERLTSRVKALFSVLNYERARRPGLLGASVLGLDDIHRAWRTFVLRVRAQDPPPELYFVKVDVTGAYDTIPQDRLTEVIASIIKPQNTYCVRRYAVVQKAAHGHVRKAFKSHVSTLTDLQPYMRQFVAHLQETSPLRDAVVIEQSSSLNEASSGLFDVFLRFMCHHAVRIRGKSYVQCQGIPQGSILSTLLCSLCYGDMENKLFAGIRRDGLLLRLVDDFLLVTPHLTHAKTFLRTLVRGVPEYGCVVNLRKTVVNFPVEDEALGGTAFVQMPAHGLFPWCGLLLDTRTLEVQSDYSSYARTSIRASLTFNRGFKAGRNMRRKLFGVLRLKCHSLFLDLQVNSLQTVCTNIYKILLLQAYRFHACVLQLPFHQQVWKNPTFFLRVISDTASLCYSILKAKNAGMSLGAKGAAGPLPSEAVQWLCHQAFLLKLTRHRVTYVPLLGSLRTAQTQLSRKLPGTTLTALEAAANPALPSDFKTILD
Experimental: 4×10⁵ HEK293T cells were cultured overnight at 37° C. under the atmosphere of 5% CO₂ in a dish with 60 mm diameter, and then transfected with 2 μg of pCI-FLAG-TERT alone or in combination with 2 μg of pCI-HA-USP21 or pCI-HA-NEDD8, using FuGENE6 Transfection Reagent (Roche). After 2 days of culturing, the cells were collected and suspended in 500 μl of cell lysis buffer (20 mM Tris-HCl, pH7.4/150 mM NaCl/1 mM ethylenediaminetetraacetic acid (EDTA)/1 mM ethylene glycol-bis-tetraacetic acid (EGTA)/1% Triton X-100/2.5 mM sodium pyrophsphate/1 mM β-glycerophsphate/1 mM Na₃VO₄/protease inhibitor cocktail), and then left to stand on ice for 20 minutes. Subsequently, centrifugation was conducted at 4° C. for 10 minutes at 14,000 rpm to collect the supernatants. The supernatants that were collected were used as cell lysates. […] The resulting supernatant was added to 10 μl of anti-HA antibody-conjugated agarose (anti-HA(Y-11)-agaraose, Santa cruz), and then subjected to overturned mixing at 4° C. overnight, followed by centrifugation to collect the beads. The beads were washed with the cell lysis buffer four times, and then added with 30 μl of 2× SDS sample buffer (125 mM Tris HCl, pH 6.8/4% sodium dodecylsulphate (SDS)/20% glycerol/0.01% bromophenol blue). […]

Molecule	amount of TERT in cell lysate (TERT)	smear-like signals in a high molecular region indicating TERT modified with one or more FLAG-NEDD8 molecules (IP anti-TERT, Western blot anti-FLAG) [1]	binding result [2]
CC(C)C[C@@H](C=O)NC(=O)[C@H](CC(C)C)NC(=O)[C@H](CC(C)C)NC(=O)OCc1ccccc1 [MG132] (Cbz-Leu-Leu-Leu-aldehyde)	increased amount of TERT		
B1		significantly decreased by co-expression of HA-USP21	binds
B2		Such decrease of the signals was not observed when co-expressing the inactive USP21, HA-USP21C221A, instead of HA-USP21	
